Assay results reported in publication PMC12124961.

Legend:
[1] = target: Bxb1 gp31, tail wing arm (Mycobacteriophage Bxb1); assay: cryo-EM structure
[2] = target: Bxb1 gp19, tail tube protein (Mycobacteriophage Bxb1); assay: cryo-EM structure

stoichiometry N [1]	stoichiometry N [2]	Substance
2	–	Bxb1 gp31, tail wing arm (natural protein)
–	6	Bxb1 gp19, tail tube protein (natural protein)
